Assay results taken from the supplement of paper PMC9112550, “Optimization of the antimicrobial peptide Bac7 by deep mutational scanning” (BMC Biology, 2022).

Tested on: Escherichia coli TOP10
Assay: shrunken log2 fold change of peptide-encoding DNA abundance (4.5 h post-induction vs induction); higher = less antimicrobial activity (less host growth inhibition)
Settings: time post-induction: 4.5 h; library: site-saturation at positions 5, 18, 19, 20
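Further: peptides expressed intracellularly from a pBAD plasmid library in pooled LB shake-flask culture, induced with 0.3% L-arabinose, DNA abundance read by NGS, three biological replicates, DESeq2 with apeglm shrinkage.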

Sequence	shrunken log2 fold change
RRIRERPPRLPRPRPRPRLMPRP	-0.103
RRIRERPPRLPRPRPRPRNAPRP	0.105
RRIRERPPRLPRPRPRPRNGPRP	0.0197
RRIRERPPRLPRPRPRPRNPPRP	-0.0856
RRIRERPPRLPRPRPRPRNSPRP	-0.639
RRIRERPPRLPRPRPRPRNTPRP	-0.346
RRIRERPPRLPRPRPRPRQPPRP	0.273
RRIRERPPRLPRPRPRPRQTPRP	0.253
RRIRERPPRLPRPRPRPRSMPRP	-0.212
RRIRERPPRLPRPRPRPRSQPRP	-0.341
RRIRERPPRLPRPRPRPRSRPRP	-0.195
RRIRERPPRLPRPRPRPRTGPRP	0.0617
RRIRERPPRLPRPRPRPRTPPRP	0.214
RRIRERPPRLPRPRPRPRWKPRP	-0.0289
RRIRERPPRLPRPRPRPRWVPRP	-0.0454
RRIRERPPRLPRPRPRPRYVPRP	-0.0655
RRIRERPPRLPRPRPRPSACPRP	0.0132
RRIRERPPRLPRPRPRPSAFPRP	-0.089
RRIRERPPRLPRPRPRPSCPPRP	-0.361
RRIRERPPRLPRPRPRPSEGPRP	0.00843
RRIRERPPRLPRPRPRPSERPRP	-0.239
RRIRERPPRLPRPRPRPSETPRP	-0.428
RRIRERPPRLPRPRPRPSGSPRP	0.0459
RRIRERPPRLPRPRPRPSHWPRP	-0.292
RRIRERPPRLPRPRPRPSILPRP	-0.623

Sequence	shrunken log2 fold change
RRIRERPPRLPRPRPRPSMCPRP	-0.409
RRIRERPPRLPRPRPRPSMHPRP	-0.451
RRIRERPPRLPRPRPRPSMKPRP	-0.607
RRIRERPPRLPRPRPRPSMMPRP	-0.257
RRIRERPPRLPRPRPRPSNRPRP	-0.209
RRIRERPPRLPRPRPRPSPNPRP	-0.328
RRIRERPPRLPRPRPRPSQVPRP	-0.0606
RRIRERPPRLPRPRPRPSRGPRP	0.49
RRIRERPPRLPRPRPRPSRTPRP	-0.111
RRIRERPPRLPRPRPRPSRVPRP	0.0314
RRIRERPPRLPRPRPRPSTEPRP	0.0386
RRIRERPPRLPRPRPRPSVNPRP	-0.959
RRIRERPPRLPRPRPRPTAPPRP	-0.043
RRIRERPPRLPRPRPRPTCTPRP	0.199
RRIRERPPRLPRPRPRPTDCPRP	-0.399
RRIRERPPRLPRPRPRPTDHPRP	-0.251
RRIRERPPRLPRPRPRPTDTPRP	-0.415
RRIRERPPRLPRPRPRPTEKPRP	0.154
RRIRERPPRLPRPRPRPTEVPRP	-0.121
RRIRERPPRLPRPRPRPTFWPRP	-0.0352
RRIRERPPRLPRPRPRPTGGPRP	0.342
RRIRERPPRLPRPRPRPTGWPRP	0.0993
RRIRERPPRLPRPRPRPTKCPRP	0.0642
RRIRERPPRLPRPRPRPTKGPRP	-0.184
RRIRERPPRLPRPRPRPTKLPRP	-0.0612

Sequence	shrunken log2 fold change
RRIRERPPRLPRPRPRPTKRPRP	-0.176
RRIRERPPRLPRPRPRPTLCPRP	0.259
RRIRERPPRLPRPRPRPTLKPRP	-0.197
RRIRERPPRLPRPRPRPTLRPRP	0.383
RRIRERPPRLPRPRPRPTMAPRP	0.00526
RRIRERPPRLPRPRPRPTNPPRP	-0.182
RRIRERPPRLPRPRPRPTPQPRP	0.246
RRIRERPPRLPRPRPRPTQEPRP	0.0237
RRIRERPPRLPRPRPRPTQTPRP	-0.00311
RRIRERPPRLPRPRPRPTTLPRP	-0.325
RRIRERPPRLPRPRPRPTTQPRP	0.299
RRIRERPPRLPRPRPRPTTSPRP	-0.147
RRIRERPPRLPRPRPRPTVKPRP	-0.218
RRIRERPPRLPRPRPRPTWFPRP	0.118
RRIRERPPRLPRPRPRPVCGPRP	0.243
RRIRERPPRLPRPRPRPVDIPRP	-0.105
RRIRERPPRLPRPRPRPVDNPRP	-0.107
RRIRERPPRLPRPRPRPVDQPRP	0.0107
RRIRERPPRLPRPRPRPVEQPRP	-0.209
RRIRERPPRLPRPRPRPVFMPRP	-0.356
RRIRERPPRLPRPRPRPVGLPRP	0.147
RRIRERPPRLPRPRPRPVINPRP	-0.217
RRIRERPPRLPRPRPRPVIYPRP	-0.248
RRIRERPPRLPRPRPRPVKKPRP	-0.179
RRIRERPPRLPRPRPRPVLCPRP	0.0605

Sequence	shrunken log2 fold change
RRIRERPPRLPRPRPRPVLWPRP	0.153
RRIRERPPRLPRPRPRPVMAPRP	-0.0537
RRIRERPPRLPRPRPRPVMTPRP	-0.221
RRIRERPPRLPRPRPRPVNDPRP	-0.0156
RRIRERPPRLPRPRPRPVNPPRP	-0.0961
RRIRERPPRLPRPRPRPVPFPRP	-0.229
RRIRERPPRLPRPRPRPVQSPRP	-0.015
RRIRERPPRLPRPRPRPVREPRP	0.242
RRIRERPPRLPRPRPRPVTSPRP	-0.23
RRIRERPPRLPRPRPRPVTTPRP	-0.0245
RRIRERPPRLPRPRPRPVVEPRP	0.118
RRIRERPPRLPRPRPRPVVYPRP	-0.945
RRIRERPPRLPRPRPRPVWRPRP	0.202
RRIRERPPRLPRPRPRPWAIPRP	-0.0826
RRIRERPPRLPRPRPRPWALPRP	-0.144
RRIRERPPRLPRPRPRPWCHPRP	-0.229
RRIRERPPRLPRPRPRPWCIPRP	-1.84
RRIRERPPRLPRPRPRPWDTPRP	-0.623
RRIRERPPRLPRPRPRPWEKPRP	-0.00277
RRIRERPPRLPRPRPRPWFHPRP	-0.421
RRIRERPPRLPRPRPRPWHHPRP	-0.326
RRIRERPPRLPRPRPRPWIDPRP	-0.0474
RRIRERPPRLPRPRPRPWKHPRP	-0.176
RRIRERPPRLPRPRPRPWLEPRP	0.101
RRIRERPPRLPRPRPRPWLNPRP	-0.00136

Sequence	shrunken log2 fold change
RRIRERPPRLPRPRPRPWLPPRP	-0.0302
RRIRERPPRLPRPRPRPWMGPRP	0.299
RRIRERPPRLPRPRPRPWMVPRP	-0.685
RRIRERPPRLPRPRPRPWNDPRP	-0.342
RRIRERPPRLPRPRPRPWNHPRP	-1.48
RRIRERPPRLPRPRPRPWNKPRP	-0.286
RRIRERPPRLPRPRPRPWPLPRP	0.0261
RRIRERPPRLPRPRPRPWQHPRP	-0.00568
RRIRERPPRLPRPRPRPWRHPRP	-0.0998
RRIRERPPRLPRPRPRPWSSPRP	9.28e-05
RRIRERPPRLPRPRPRPWTKPRP	0.0475
RRIRERPPRLPRPRPRPWTLPRP	-0.407
RRIRERPPRLPRPRPRPWWEPRP	0.0397
RRIRERPPRLPRPRPRPWWIPRP	-0.021
RRIRERPPRLPRPRPRPWWRPRP	0.098
RRIRERPPRLPRPRPRPWYMPRP	-0.386
RRIRERPPRLPRPRPRPWYPPRP	-0.224
RRIRERPPRLPRPRPRPYAFPRP	-0.961
RRIRERPPRLPRPRPRPYAGPRP	-0.000921
RRIRERPPRLPRPRPRPYAQPRP	-0.384
RRIRERPPRLPRPRPRPYCIPRP	-0.205
RRIRERPPRLPRPRPRPYDLPRP	-0.169
RRIRERPPRLPRPRPRPYFHPRP	-0.996
RRIRERPPRLPRPRPRPYFMPRP	-0.784
RRIRERPPRLPRPRPRPYGEPRP	-0.0274

Sequence	shrunken log2 fold change
RRIRERPPRLPRPRPRPYGGPRP	-0.286
RRIRERPPRLPRPRPRPYHEPRP	-3.17
RRIRERPPRLPRPRPRPYHGPRP	-0.47
RRIRERPPRLPRPRPRPYKPPRP	-0.116
RRIRERPPRLPRPRPRPYLGPRP	-0.12
RRIRERPPRLPRPRPRPYLLPRP	-0.165
RRIRERPPRLPRPRPRPYNWPRP	-0.276
RRIRERPPRLPRPRPRPYQVPRP	-0.109
RRIRERPPRLPRPRPRPYSVPRP	-0.114
RRIRERPPRLPRPRPRPYYDPRP	-0.362
RRIRFRPPRLPRPRPRPAAYPRP	-0.341
RRIRFRPPRLPRPRPRPACDPRP	0.103
RRIRFRPPRLPRPRPRPACPPRP	0.12
RRIRFRPPRLPRPRPRPADSPRP	-0.187
RRIRFRPPRLPRPRPRPAENPRP	-0.134
RRIRFRPPRLPRPRPRPAEPPRP	0.137
RRIRFRPPRLPRPRPRPAFFPRP	0.0784
RRIRFRPPRLPRPRPRPAGCPRP	0.229
RRIRFRPPRLPRPRPRPAGHPRP	0.153
RRIRFRPPRLPRPRPRPAHIPRP	-0.218
RRIRFRPPRLPRPRPRPAICPRP	0.00851
RRIRFRPPRLPRPRPRPAIDPRP	-0.00326
RRIRFRPPRLPRPRPRPAKGPRP	0.141
RRIRFRPPRLPRPRPRPAKVPRP	0.333
RRIRFRPPRLPRPRPRPALPPRP	0.0544
